# Data from the domain aggregation screens of Martell et al. (2025).
# Assay: soluble fraction after stress (log2 fold change); higher = more stays soluble; pooled small domains, quantitative proteomics
# Details: stress: 50 degC
# Outline: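 Pooled custom libraries of small protein domains were measured in a high-throughput format, with quantitative proteomics as the read-out. Each library was stressed at 50°C. Aggregation propensity is given as the base-two logarithm of the fold change in how much of each protein stays soluble after the stress. Higher values mean a larger share of the protein remains in solution.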
row,Sequence,soluble fraction (log2)
1,HMADPAVLIAELFRAMPEKRFSVKNLISATGAETREQKDYVREVVHSLSREGMIEQVAEGKYRLSASE,0.171
2,HMGVDASVDSKLDLLSQVLDSDQVKEQLPEAVLEQLAQNLDRWRSLHEESELQDDDIAELNRLLGLFGLG,0.0425
3,HMDLQNIQNQLNTEFAKSDTRIIFWFDDKGEYEDEVSELQLGDVKLHILDGLNWFYSKYLLNEA,-0.274
4,HMIIIMKPNASEEAVRKVTHIIESKGLQVHLSKGSQVTIVGVVGDKTRLQGSNIEISEGVDKVVAVT,-0.0139
5,HMYRYGETPMVVVPDLIGRTVSDIYEEMNADFRLEKFGNGNTVISQAPKPGERVEQGSVIRVYLSGQDQ,0.157
6,HMRPSGEAVNAAYRLLKGANPSGNEGDLIQRAQEVAAILPKLNRSSAAAFAKDAKANGLTQAETIALWKGS,0.225
7,HMTTKYVAVHESKDGYWTIASKPSSKEDAEAMLGGTPKNEVGKVVTLEEAKAHKKTLGEEYLYE,0.272
8,HMYPATGTVVTAGGHLNMRSEPDRSGAILARIPNGTALTLTGKNGDWYAATYAGRSGYVSAQYISLS,-0.0468
9,HMRTITIDDSIAGKRLDEALTLLGAESSRTKVKLLFSSPNGVLVNGEKEKPHYRVEAGDVIQFGELPKK,0.271
10,HMITAEQENILFEKASDDISNNIINKGIWTKAYSQAGGDESKQKAIYIDLLVNYYKMLIKAGEEFEDI,-1.39
11,HMAALKVAVLTVSDTRTQETDTSGAFLEGALREAGHEIADRQIVIDDVYQLRAIVSQWIADPEVEVILT,-0.217
12,HMEREQPFAVTEAYRGMRLDRFLQAMLPRMSRAAIQDAIDNRVRLGSGRAAKASLRPAIGDTVFFGQRI,-0.822
13,HMEDIKHVVANNIKKYRKEERLTLQQLSYLTGVSKTMLNQIETEKSSPSITILWRISSGLKIPLSKLISSP,-1.61
14,HMDKSFLQSLHLIALGIVKNQMDPWELVNGWVEYYLKNKDKYIDHPNLKAVAVLKMKGLFIDHFRKS,-4.84
15,HMTNTYEVIKNDIIFGVLPPLKKLKLLELKKKYITSVSTLREILSRLSGDGFVVSKEQKGFYVSAV,-0.00437
16,HMITKAIELAEEAEKETVWLGVWEHNHPAQKFYQSLGFVKTDEHDFYMGNERHTDYTMTKQLK,-0.138
17,HMRAPIGFRISNRRKSLKISQVALARLVGISPSYLNLIENNKRDVGGALLQRVALHLNIDIDDL,-3.02
18,HMGSGQIRYITENTVRVVYGTSKENEFVFQDGKPYPKDTPYHIHYTRNLEEYFMSGVEHDKNSKIILKVD,-0.803
19,HMNMANFARIRLILELHDRGMSQDEISRSRHMSRSTITTVLRTARKKGITYAGIRKLDDAALQKLFFPDR,-3.88
20,HMSVDDYLKFSGSGTYWNTQDRGKTYLVNGQQRPLRDKEYLPDVMHRHVIDFITKHRDRPFYIYYSM,0.0643
21,HMIKITLGWVISVRRHDLGYTQHKMARAVGISDLTVSRIESDDGITPDNNTLRKIAEYLKIDYNSLLTLK,-1.73
22,HMKTVKPSQIPYSEFLKLVETDKINDVSMVGRNIIGHLDDGSKFKTYTPPNDPTLIEKLSSHNIVINAAPE,0.149
23,HMEDADERRALEVLNQLLDLPEREQEAALAALSLPPALARRVRSLLSVQTRAADLFDTAPSP,-0.0946
24,HMNGLNISYRMDGENVVETIVFPDATMIRTIAPNGVMTIKTIEDGSVSTSELKADYKLYKKIYESQY,-0.262
25,HMAGTGKVNTGVANVRSGPGTNYEISGKIYADTEVSILETSNGWYKIKFGNLTGWMSGTVLDIK,-0.138
26,HMSKPLEVFKLTSEPFGFSFNTALGRSYTVEATGDLGVWKAVELFQGSGGEIRFTAKPTSSGGAQFFRVFV,-0.0927

row,Sequence,soluble fraction (log2)
1,HMKNNYQYIVDQIKQLILDGELIVGDRLPSERDLSEMYQVSRASVREALKALETIGLLESRHGGGNYIVNH,-0.671
2,HMRRTVIVTAAHAEIRERPDANAPLVFSAEQKVSLDYQETAPGGWVKVRHRDGQSGYVRTNQI,-0.688
3,HMTENIPPVKIEEMRQKWQDIVLLHGVTSGRKIKSGQATYIWLYRNDQNWLLTFNSRHLSQPQV,0.145
4,HMMESLGIRLKRLRKDKGLTQVELGKLSGVTGVTIGYWEKDLNEPGSKALSKLAQALGTTESYLLYGVS,-0.634
5,HMSFVAYEEEKAIGMVRLIGDGGMSFYIKDFAVLPGHQGKGVGQMLLMELQQYLLEHKPADWAVSLE,-0.329
6,HMETFGLSQRELQILSQLHKGQPLKEFAASLFITESTLKTHLSAIYRKMSVKNRVQAIEKAKQSGL,-1.24
7,HMLAIKKGGIFAILGPNGSGKSTFSKVLAGHPAYTVVDGDIFFKGLSILDLEPEERSHLGIFLAFQ,-0.153
8,HMTKLLSALQADKFAKKLANDTNFGSNFARMGESAMDFTNRLVEELQRDEGKVANYMPYLTKLGF,0.312
9,HMFAVPAPEVDDILSEKKVDVLLLGPQVRYLLEQFTEKLKDKNIPIGVIPMVDYGMMNGSKVLALAEELIG,-0.0132
10,HMAESSPYTVRPGDTLWKILAQTQNARYNDFPYLYRKFRELNPNITDLNHIVSGQKIIVPHIPG,0.0168
11,HMADLVYLRKRLQDAIAQLPEDMRTAYTLFQIARRSIREIAELTGASESLVKVRIHRAKGKLQELLEDLR,-1.87
12,HMQAPVVNHDLIKSFERQWREIKATAKGKVRSVNLSDARSILQSFLNTLQKGPGTDSLISSVQNELSLIA,-0.00186
13,HMSLTAQVFTDRGKVLLSENKFTEAIDQFTKALAMDKVYIEALNRRIEAYQHLGLTELAAKDEALLGTL,-0.755
14,HMKVSKNKIVKGMGFHHVALKAVDFDASFKFYTEGLGMKFYTSWGEGNGKIAMLDLGDGGILELFA,0.0801
15,HMAVSSYSVKRYIRNMIQAEDPSAPFSDEALRLALLAHGIAVSRRVVTKYRMAMDIPSSSQRRKR,-0.866
16,HMGPPAVGAKLQVLRQARKLSLDELSRRAGVSKSMLSQVERNLANPTVAVLWRLATALGVGLADFLSP,-1.39
17,HMSKMTLGENLRLLRREKGLSQEQVAQTLFVARQTISKWENGQAEPGVESLKALAKLYGVSLDRLVGA,-0.0483
18,HMSGSIIQQAENLERQFGDTREAILGTLSDPKMSEEILETLMERYNKQHGTNWDKNTWAEEWAKANK,0.23
19,HMAQIVNLPRKNVNGASYYYYEVQPKETIYSISRKLGVSGAEIQRHNPSVADGLKIGQVLYFPAEG,0.0843
20,HMRVGADLTQRERELLALMAQGMSNQEIAKRLEIAVPTVKFHITNILDKLQVGNRTEAVIAALEHKLVP,-0.58
21,HMNKVAQFYRELVSTLSERLRNGERDIDALVEQARVRISQSGELTQSEIENVIRAVRRDLEEFALSYEE,0.0926
22,HMGTRIQAVMEDIQSRIAARTYLPGTRLPSVRAQAQAMQVSVSTVVEAYERLAAEGVIASRPGSGFYVAGP,-1.44
23,HMDLIFQKGDLVFSTEHNQRGIFYEYLEQGQAKISIEKQFFVVAARRLQLLTKREVLYPAGYDLDQLFV,-0.0465
24,HMPTTTFENLPDAKKKTIIAALLKEFSQSPLSKAQVAPIVKESQIARGAFYKYFVDLTDAYTYLYRQ,-0.204
25,HMSTLSIHIPDKFAGQRLDQALAELYSQFSRSRLQQWLNDGELLVDGKSVKANKKVLGGEFIQILK,-0.861
26,HMNLYERFPIHELWKETFNETLDEEEHITFITSEFKPENIVLGQGFIAAPSKKDAVDWLKVIRTVLIFYDS,-0.941

row,Sequence,soluble fraction (log2)
1,HMEMTSREIIKRLEEDGWYHVKTTGDHYQMKHPTKPGKVTIVHPAKDLSIGTLRSIEKQSGVRL,-0.0157
2,HMETTVSYSGVVTASVLRIRKGPSVSSSVAGTLKKGTGVSIIFEDNGWGKLADGSGWVSLTYIKKNSTP,-0.302
3,HMITDSSEIEAMVDALVKENPGQAEQYKDGNMKVAGWFIGQIMKVSKGKANPQLVGDLLKKKLG,0.353
4,HMGVHSVVPDIKNKHYGEAKAILAANGLSIEISDSIYDRSVAPGTVVESWPKAGAIVKGDRAVFVTLTAF,-1.28
5,HMQEDKSKYLFQRGTAITVLRPAGIVRIGKERVDAVSNGSYIDRGVAVRVIEVEGTRVVVEPVPE,0.13
6,HMEVAASEQRDNLWALARRVLSGEQYDVLYLRYVEDFSVAQIADVVGKTQTHVKVLLFRGRNNLGSRLRS,0.199
7,HMNETRVDQAADLLLALLEKEPKSAAEILDEFEQAGFSKSGLYRAKDALGVVSIRKEGRWVWSLPHSLD,-0.104
8,HMAKRKYKSFKDVAEFAQKLGIKSSTEWWAYVRGHEIPSDIPKDPSTYYKKEWTTWGDFLGTGYVSSA,0.154
9,HMGYDSYDADTIPKLKIGSIVEHPKFGEGSIISKAGAEVTIAFKIKGVKKINLEYTSIKVLK,-0.935
10,HMSGKGEFDQLLRSGEYVQAFQRANANGNVTLRRQQLLNLARHQAASGVGSGAIESLSTIQRI,0.0926
11,HMKDLSMPDVMGSSLNDAKKALTELGIMDITVRYVESGSSEGSIVGMEPPAGSKFAADGKVVLQVSSGS,0.351
12,HMTDLALHIGKTLRELRQRRGWSLDKTAQATGVSKAMLGQIERGESSPTVVTLWRISSGLQASFSEFLPP,-1.61
13,HMTVNLPPKQKAAILLMSLPPEVSAQLFKELGPDEVHAITLEISKLPPISPDVRAQVIDEFLHSS,-0.152
14,HMYATQLLQLEEMGFFDRAENIRALRATNGNVNAAVERL,0.0407
15,HMEDSEYDRLLAEIDEGIRKAIETLEPVELSPQNARVRRIQHQIIEKYQLHSDSVGEEPYRRVRIL,-0.593
16,HMLAQYPGQVFSKEQIYNQVWKEPYYGVEDNVMSLIRRIRKKIEPDPSRPIYILTVWGIGYKFNN,-0.197
17,HMQQPVVVQQNQTVRVVTGGPGFQVANEGRALNNGLAGQVVQVRLGNGQIISGIARAGGIVEIL,0.0705
18,HMDSTLDLVATQGGRLDQVLAEMIPEHSRNRLQHWIKAGRVLVDGQPVLEPKHKIYGGEDLAVRVD,0.278
19,HMSTASPEELRQTPERRRLIEYLREHGGHGRTSEIAAALGIDDSTASRLLRRLADNGLIVRTQYGEYTLLQ,0.0183
20,HMGATFITSSKDNAINIRQAAGTDSKVIETIKNGHILESSEKSGEWYKVTYYDSDIKKTFTGYIHNSQLK,0.159
21,HMKKITTANPLDINRATLAQLDTLPGIGPVTAERIIAYRSKVGRINSLDELKKISGLGGMKFEEIKPLLRV,0.042
22,HMNYNEKGEYTRTLTSGSETAVMTYRNFGETLDVALFKNGVQTDSLRLIKSEPGVLYRQSNGQFEKI,0.0586
23,HMHPSNQELTKVLAQGSELVLAQKYIEASQIFTRVIEIDQTWAEAWNKRATVFYLLQNYEASQKDIDEV,0.0182
24,HMVDFVNVVVPVKANYGGEAVVEFLDERLSEFGTEGIYRIELQGETMENPSPDYSQLKAKYHISEIVDRT,0.08
